Some targets named below: M6; M10; M1; M5; A2 (UniProt Q13501); M11; M2.
What all share (test): SPR
Assay [1] deals with A2 with residue 7 substituted with alanine (UniProt Q13501).
Assay [2] concerns the target A2 with residue 9 substituted with alanine (UniProt Q13501).
The target of assay [3] is A2 with residue 4 substituted with alanine (UniProt Q13501).
In assay [4] the target is A2 with residue 3 substituted with alanine (UniProt Q13501).

B1: purified TRB3 protein (natural protein)
chain: MRATPLAAPAGSLSRKKRLELDDNLDTERPVQKRARSGPQPRLPPCLLPLSPPTAPDRATAVATASRLGPYVLLEPEEGGRAYQALHCPTGTEYTCKVYPVQEALAVLEPYARLPPHKHVARPTEVLAGTQLLYAFFTRTHGDMHSLVRSRHRIPEPEAAVLFRQMATALAHCHQHGLVLRDLKLCRFVFADRERKKLVLENLEDSCVLTGPDDSLWDKHACPAYVGPEILSSRASYSGKAADVWSLGVALFTMLAGHYPFQDSEPVLLFGKIRRGAYALPAGLSAPARCLVRCLLRREPAERLTATGILLHPWLRQDPMPLAPTRSHLWEAAQVVPDGLGLDEAREEEGDREVVLYG
Take B1: the Kd with M6 turned out to be 0.142 nM; with M10 it was 381 nM; with M1, 1640 nM; with M5 it was 110 nM; in the assay with A2, 10.2 nM; in assay [1], 11800 nM. The Kd amounted to 73.1 nM with M11; 35600 nM in [2]; 402 nM with M2; 4320 nM in assay [3]; 3590 nM in assay [4].

Values taken from article PMC4557121 (2015).
